Assay results taken from patent publication US7127357 (SALK INSTITUTE FOR BIOLOGICAL STUDIES, dated 2006).
Non-standard residues stand in square brackets, D forms with d. No end group written: not given here. pT = C[C@@H](OP(=O)(O)O)[C@H](N)C(=O)O; pS = N[C@@H](COP(=O)(O)O)C(=O)O

B1: VPRpTPV (Cdc25c-T48), rhodamine-labeled (peptide)
peptide: VPR[pT]PV
modifications: also: tetramethylrhodamine label on an amine
notes: Six-residue peptide derived from human Cdc25c
B2: PPApTPP (Myt1-T412), rhodamine-labeled (peptide)
peptide: PPA[pT]PP
modifications: also: tetramethylrhodamine label on an amine
notes: Six-residue peptide derived from human Myt1
B3: PPGpSPP (Myt1-S416), rhodamine-labeled (peptide)
peptide: PPG[pS]PP
modifications: also: tetramethylrhodamine label on an amine
notes: as for B2
B4: STSpTPR (Myt1-T455), rhodamine-labeled (peptide)
peptide: STS[pT]PR
modifications: also: tetramethylrhodamine label on an amine
notes: as for B2

Target: T1, isolated PPIase domain of human Pin1 (human, UniProt Q13526 50-163)
T1 construct: range 50-163; also called Pin1 PPIase domain
T1 sequence (Q13526 50-163 limits assumed): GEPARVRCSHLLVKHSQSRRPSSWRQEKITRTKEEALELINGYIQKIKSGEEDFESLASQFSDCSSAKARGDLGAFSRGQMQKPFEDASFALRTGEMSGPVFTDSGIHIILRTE
Experiment: fluorescence anisotropy, rhodamine-labeled peptide
Protocol: Binding Analysis. […] Lyophilized peptides were dissolved in 25 mM HEPES-Na^+ (pH 7.5), 100 mM NaCl, 1 mM DTT and stored for short periods of time at −20° C. Peptides were labeled with the amine reactive reagent tetramethylrhodamine-5-(and-6)-isothiocyanate (Molecular Probes, Inc. Eugene, Oreg.) using a 2:1 molar ratio of rhodamine to peptide in 0.1 M sodium bicarbonate (pH 9.0) at ambient temperature for 10 hr. Fluorescence data were collected on a PTI Alphascan spectrofluorimeter (Photon Technology Instruments, Santa Clara, Calif.).

Binder	binding result
B1	no binding
B2	no binding
B3	no binding
B4	no binding
